The labels stand for the following.
B1: ADAMTS4 (parent)
chain: HVDPEEPWSPCSARFITDFLDNGY

This is an account of results in the supplement of paper PMC10567573.
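Further: lentivirally expressed fusions sorted by FACS into six bins by GFP to DsRed ratio, PSI derived from sequencing read proportions per bin multiplied by bin number.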

The variants in the series derive from B1. Kind of series: protein stability index of a GFP-peptide fusion (GPS, HEK-293T) (PSI 1-6); higher = more stable. The note with it: c terminus: a fixed tail appended.
Consider HVDPEEPWSPCSARFITDFLDNGI, for which the protein stability index is 2.05.

Take HVDPEEPWSPCSARFITDFLDNGS: the protein stability index turned out to be 1.81. Take HVDPEEPWSPCSARFITDFLDNGN: the protein stability index worked out at 2.21.

Consider HVDPEEPWSPCSARFITDFLDNGF, for which the protein stability index came to 2.17. Turning to HVDPEEPWSPCSARFITDFLDNGV, the protein stability index stood at 1.73. With HVDPEEPWSPCSARFITDFLDNGA, the protein stability index is 2.32. Take HVDPEEPWSPCSARFITDFLDNWY: the protein stability index was 1.82. For the variant HVDPEEPWSPCSARFITDFLDNDY, the protein stability index was found to be 2.24. Turning to HVDPEEPWSPCSARFITDFLDNSY, the protein stability index worked out at 1.71. For HVDPEEPWSPCSARFITDFLDNYY, the protein stability index turned out to be 2.02. For the variant HVDPEEPWSPCSARFITDFLDNQY, the protein stability index was determined as 1.65. With HVDPEEPWSPCSARFITDFLDNNY, the protein stability index turned out to be 1.61. The same measure for HVDPEEPWSPCSARFITDFLDNFY: 2; for HVDPEEPWSPCSARFITDFLDNHY: 2.12. For HVDPEEPWSPCSARFITDFLDNVY, the protein stability index worked out at 2.27. The same measure for HVDPEEPWSPCSARFITDFLDNPY: 2.1; for HVDPEEPWSPCSARFITDFLDNAY: 1.74; for HVDPEEPWSPCSARFITDFLDNMY: 1.69.

For HVDPEEPWSPCSARFITDFLDNKY, the protein stability index came to 2.06. In the case of HVDPEEPWSPCSARFITDFLDNRY, the protein stability index came out at 1.53. The figure for HVDPEEPWSPCSARFITDFLDNCY is 2.17.

HVDPEEPWSPCSARFITDFLDNEY: the protein stability index stood at 1.96. In the case of HVDPEEPWSPCSARFITDFLDNLY, the protein stability index is 1.82. In the case of HVDPEEPWSPCSARFITDFLDNIY, the protein stability index turned out to be 2.05. Take HVDPEEPWSPCSARFITDFLDNTY: the protein stability index was 2.22. The same measure for HVDPEEPWSPCSARFITDTLDNGY: 2.02; for HVDPEEPWSPCSARFITDCLDNGY: 1.5; for HVDPEEPWSPCSARFITDELDNGY: 1.96. On to HVDPEEPWSPCSARFITDNLDNGY, for which the protein stability index was found to be 2.05. The same measure for HVDPEEPWSPCSARFITDDLDNGY: 2.54. In the case of HVDPEEPWSPCSARFITDGLDNGY, the protein stability index was found to be 2.06.

As to HVDPEEPWSPCSARFITDQLDNGY, the protein stability index came to 2.21. For the variant HVDPEEPWSPCSARFITDPLDNGY, the protein stability index came out at 3.

As for HVDPEEPWSPCSARFITDWLDNGY, the protein stability index was 1.93. Regarding HVDPEEPWSPCSARFITDMLDNGY, the protein stability index amounted to 1.89.

As to HVDPEEPWSPCSARFITDKLDNGY, the protein stability index stood at 2.16. Take HVDPEEPWSPCSARFITDALDNGY: the protein stability index was determined as 1.86. HVDPEEPWSPCSARFITDSLDNGY: the protein stability index came to 2.17. Turning to HVDPEEPWSPCSARFITDVLDNGY, the protein stability index amounted to 1.78.

Take HVDPEEPWSPCSARFITDYLDNGY: the protein stability index was 1.58. The figure for HVDPEEPWSPCSARFITDRLDNGY is 1.65; for HVDPEEPWSPCSARFITDILDNGY it is 1.8. On to HVDPEEPWSPCSARFITDHLDNGY, for which the protein stability index is 2.29. As to HVDPEEPWSPCSARFITDLLDNGY, the protein stability index is 1.64.

On to HVDPEEPWSPCSARFITDFLANGY, for which the protein stability index amounted to 1.35. Consider HVDPEEPWSPCSARFITDFLGNGY, for which the protein stability index was 1.76. As for HVDPEEPWSPCSARFITDFLWNGY, the protein stability index was 2.42.

Consider HVDPEEPWSPCSARFITDFLTNGY, for which the protein stability index amounted to 1.96. The figure for HVDPEEPWSPCSARFITDFLENGY is 1.71.

Consider HVDPEEPWSPCSARFITDFLFNGY, for which the protein stability index turned out to be 2.12. HVDPEEPWSPCSARFITDFLINGY: the protein stability index came to 2.69. Turning to HVDPEEPWSPCSARFITDFLYNGY, the protein stability index is 1.33. Consider HVDPEEPWSPCSARFITDFLNNGY, for which the protein stability index amounted to 1.84. Consider HVDPEEPWSPCSARFITDFLQNGY, for which the protein stability index was determined as 2.21. As to HVDPEEPWSPCSARFITDFLPNGY, the protein stability index worked out at 1.96.

With HVDPEEPWSPCSARFITDFLKNGY, the protein stability index amounted to 1.88. As to HVDPEEPWSPCSARFITDFLHNGY, the protein stability index is 1.43. Take HVDPEEPWSPCSARFITDFLVNGY: the protein stability index turned out to be 2.2. The same measure for HVDPEEPWSPCSARFITDFLMNGY: 1.77; for HVDPEEPWSPCSARFITDFLRNGY: 1.87. Regarding HVDPEEPWSPCSARFITDFLSNGY, the protein stability index is 1.73. Consider HVDPEEPWSPCSARFITDFLCNGY, for which the protein stability index came out at 1.95. The same measure for HVDPEEPWSPCSARFITDFLLNGY: 1.6; for HVDPEEPWSPCSARFITNFLDNGY: 1.58; for HVDPEEPWSPCSARFITMFLDNGY: 2.9.

As for HVDPEEPWSPCSARFITRFLDNGY, the protein stability index was 1.13. Consider HVDPEEPWSPCSARFITTFLDNGY, for which the protein stability index worked out at 1.65. The figure for HVDPEEPWSPCSARFITLFLDNGY is 2.6; for HVDPEEPWSPCSARFITYFLDNGY it is 1.94. For the variant HVDPEEPWSPCSARFITQFLDNGY, the protein stability index turned out to be 1.67. HVDPEEPWSPCSARFITWFLDNGY: the protein stability index worked out at 1.53. The figure for HVDPEEPWSPCSARFITPFLDNGY is 2.17. Consider HVDPEEPWSPCSARFITKFLDNGY, for which the protein stability index turned out to be 2.02. The figure for HVDPEEPWSPCSARFITVFLDNGY is 2.03. For the variant HVDPEEPWSPCSARFITSFLDNGY, the protein stability index turned out to be 1.61. As for HVDPEEPWSPCSARFITDFCDNGY, the protein stability index worked out at 1.52.

In the case of HVDPEEPWSPCSARFITDFQDNGY, the protein stability index is 2.28. The figure for HVDPEEPWSPCSARFITDFNDNGY is 2.39; for HVDPEEPWSPCSARFITDFKDNGY it is 1.93. HVDPEEPWSPCSARFITDFTDNGY: the protein stability index was determined as 2.13. For the variant HVDPEEPWSPCSARFITDFYDNGY, the protein stability index was 2.14.

In the case of HVDPEEPWSPCSARFITDFADNGY, the protein stability index is 1.96. The same measure for HVDPEEPWSPCSARFITDFVDNGY: 1.92; for HVDPEEPWSPCSARFITDFSDNGY: 1.82. As to HVDPEEPWSPCSARFITDFEDNGY, the protein stability index was 2.24. For the variant HVDPEEPWSPCSARFITDFDDNGY, the protein stability index turned out to be 2.22.

As for HVDPEEPWSPCSARFITDFWDNGY, the protein stability index was found to be 1.59. On to HVDPEEPWSPCSARFITDFHDNGY, for which the protein stability index is 1.92. For HVDPEEPWSPCSARFITDFGDNGY, the protein stability index was 2.31.

For the variant HVDPEEPWSPCSARFITDFMDNGY, the protein stability index was determined as 1.82.

In the case of HVDPEEPWSPCSARFITDFIDNGY, the protein stability index stood at 1.78. Take HVDPEEPWSPCSARFITDFFDNGY: the protein stability index stood at 2.04. Turning to HVDPEEPWSPCSARFITDFPDNGY, the protein stability index amounted to 2.15.

On to HVDPEEPWSPCSARFITDFRDNGY, for which the protein stability index came out at 2.3.
